The text below walks through data of US20250076311A1 (Chugai, published 2025).

What all share (assay): SPR (Biacore), 25C, FcgR bound per antibody captured
In general terms: Surface plasmon resonance follows binding to a sensor surface in real time, without labels.

Test [1] has as its target T1, cynomolgus monkey FcγRIIa1 extracellular domain, His-tagged (cynomolgus monkey).
T1 construct: also called cyno FcgRIIa1
T1 chain: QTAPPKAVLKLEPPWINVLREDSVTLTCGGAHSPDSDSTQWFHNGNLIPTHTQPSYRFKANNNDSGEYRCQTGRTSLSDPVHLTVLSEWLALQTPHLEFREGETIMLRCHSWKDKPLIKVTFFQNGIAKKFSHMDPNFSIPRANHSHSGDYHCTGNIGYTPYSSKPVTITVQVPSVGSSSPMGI
As for the experimental part: (§1) In the next step, cross-reactivity of these substitutions to cynoFcγRs was evaluated.
(§2) The value of the amount of FcγR binding was obtained by dividing the amount of FcγR bound by the amount of each antibody captured.

Test [2] addresses T2, cynomolgus monkey FcγRIIa2 extracellular domain, His-tagged (cynomolgus monkey).
T2 construct: also called cyno FcgRIIa2
T2 chain: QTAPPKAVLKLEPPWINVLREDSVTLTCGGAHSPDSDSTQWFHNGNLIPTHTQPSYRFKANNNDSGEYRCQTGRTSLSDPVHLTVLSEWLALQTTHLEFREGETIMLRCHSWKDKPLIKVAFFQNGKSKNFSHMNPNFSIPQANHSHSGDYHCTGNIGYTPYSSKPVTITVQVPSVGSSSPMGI
As for the experimental part:
as §1, §2

Test [3] deals with T3, cynomolgus monkey FcγRIIa3 extracellular domain, His-tagged (cynomolgus monkey).
T3 construct: also called cyno FcgRIIa3
T3 chain: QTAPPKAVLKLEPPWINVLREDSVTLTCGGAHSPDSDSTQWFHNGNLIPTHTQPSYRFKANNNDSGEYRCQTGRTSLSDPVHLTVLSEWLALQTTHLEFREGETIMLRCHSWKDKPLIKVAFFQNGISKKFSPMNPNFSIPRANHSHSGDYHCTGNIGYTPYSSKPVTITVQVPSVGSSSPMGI
As for the experimental part:
as §1, §2

Test [4] addresses T4, cynomolgus monkey FcγRIIb extracellular domain, His-tagged (cynomolgus monkey).
T4 construct: also called cyno FcgRIIb
T4 chain: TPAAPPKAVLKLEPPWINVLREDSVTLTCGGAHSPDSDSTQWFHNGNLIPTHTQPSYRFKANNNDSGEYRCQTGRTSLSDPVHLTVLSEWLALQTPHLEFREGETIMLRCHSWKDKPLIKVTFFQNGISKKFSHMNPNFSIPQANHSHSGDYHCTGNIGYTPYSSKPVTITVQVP
Here is the method: as §1, §2

Test [5] addresses T5, cynomolgus monkey FcγRIIIaS extracellular domain, His-tagged (cynomolgus monkey, UniProt Q8SPW2 21-206 at identity 1.00)).
T5 construct: also called cyno FcgRIIIaS
T5 chain: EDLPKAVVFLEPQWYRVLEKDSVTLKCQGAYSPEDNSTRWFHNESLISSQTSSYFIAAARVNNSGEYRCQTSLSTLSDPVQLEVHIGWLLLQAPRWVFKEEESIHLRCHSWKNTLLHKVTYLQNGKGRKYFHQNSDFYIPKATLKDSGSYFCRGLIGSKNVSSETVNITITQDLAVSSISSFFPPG
Here is the method:
as §1, §2

B1: M103205H795-SG168 / M103202L889-SK1 (antibody, human IgG1, kappa, name in EU numbering)
heavy: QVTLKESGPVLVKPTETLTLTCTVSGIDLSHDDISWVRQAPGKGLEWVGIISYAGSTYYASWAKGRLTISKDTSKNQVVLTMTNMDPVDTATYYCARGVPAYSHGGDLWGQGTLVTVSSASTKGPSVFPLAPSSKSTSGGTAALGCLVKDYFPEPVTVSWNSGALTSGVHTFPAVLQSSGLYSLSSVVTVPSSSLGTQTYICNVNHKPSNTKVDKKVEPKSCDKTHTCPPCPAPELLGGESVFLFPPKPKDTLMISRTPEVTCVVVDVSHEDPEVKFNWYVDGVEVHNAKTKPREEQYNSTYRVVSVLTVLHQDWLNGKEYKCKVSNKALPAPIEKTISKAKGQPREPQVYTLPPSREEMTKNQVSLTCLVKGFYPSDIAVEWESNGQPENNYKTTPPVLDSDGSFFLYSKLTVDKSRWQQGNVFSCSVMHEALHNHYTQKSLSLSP
light: DIVMTQSPATLSLSPGERATLSCTSSQSVYHANWLSWFQQKPGQPPKLLIYWASTLAYGVPSRFSGSGSGTDFTLTISSLQPEDAATYYCAGGYGGGRYAFGQGTKVEIKRTVAAPSVFIFPPSDEQLKSGTASVVCLLNNFYPREAKVQWKVDNALQSGNSQESVTEQDSKDSTYSLSSTLTLSKADYEKHKVYACEVTHQGLSSPVTKSFNRGEC
notes: also called P238E
As to B1, the “Binding to cynoFcgRs (SG1 = 100)” value turned out to be 21 in test [1]; 16 in test [2]; 30 in test [3]; 28 in test [4]; 13 in test [5].

B2: M103205H795-SG178 / M103202L889-SK1 (antibody, human IgG1, kappa, name in EU numbering)
heavy: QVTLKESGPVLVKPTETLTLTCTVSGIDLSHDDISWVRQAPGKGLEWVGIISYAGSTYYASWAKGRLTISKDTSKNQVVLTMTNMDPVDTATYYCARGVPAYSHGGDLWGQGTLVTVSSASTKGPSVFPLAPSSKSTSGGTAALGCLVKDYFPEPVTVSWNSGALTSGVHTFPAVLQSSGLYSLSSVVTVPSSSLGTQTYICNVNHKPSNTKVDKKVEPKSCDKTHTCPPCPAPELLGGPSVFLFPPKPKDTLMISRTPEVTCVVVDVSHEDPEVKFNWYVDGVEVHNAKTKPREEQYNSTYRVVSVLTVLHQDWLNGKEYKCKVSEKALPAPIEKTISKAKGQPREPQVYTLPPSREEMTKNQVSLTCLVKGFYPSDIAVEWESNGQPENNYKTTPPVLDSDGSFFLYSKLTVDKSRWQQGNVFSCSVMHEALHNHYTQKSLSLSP
light: DIVMTQSPATLSLSPGERATLSCTSSQSVYHANWLSWFQQKPGQPPKLLIYWASTLAYGVPSRFSGSGSGTDFTLTISSLQPEDAATYYCAGGYGGGRYAFGQGTKVEIKRTVAAPSVFIFPPSDEQLKSGTASVVCLLNNFYPREAKVQWKVDNALQSGNSQESVTEQDSKDSTYSLSSTLTLSKADYEKHKVYACEVTHQGLSSPVTKSFNRGEC
notes: also called N325E
Regarding B2, the “Binding to cynoFcgRs (SG1 = 100)” value in test [1] was determined as 22; in test [2], 21; in test [3] it was 29; in test [4], 26; in test [5], 36.

B3: M103205H795-SG177 / M103202L889-SK1 (antibody, human IgG1, kappa, name in EU numbering)
heavy: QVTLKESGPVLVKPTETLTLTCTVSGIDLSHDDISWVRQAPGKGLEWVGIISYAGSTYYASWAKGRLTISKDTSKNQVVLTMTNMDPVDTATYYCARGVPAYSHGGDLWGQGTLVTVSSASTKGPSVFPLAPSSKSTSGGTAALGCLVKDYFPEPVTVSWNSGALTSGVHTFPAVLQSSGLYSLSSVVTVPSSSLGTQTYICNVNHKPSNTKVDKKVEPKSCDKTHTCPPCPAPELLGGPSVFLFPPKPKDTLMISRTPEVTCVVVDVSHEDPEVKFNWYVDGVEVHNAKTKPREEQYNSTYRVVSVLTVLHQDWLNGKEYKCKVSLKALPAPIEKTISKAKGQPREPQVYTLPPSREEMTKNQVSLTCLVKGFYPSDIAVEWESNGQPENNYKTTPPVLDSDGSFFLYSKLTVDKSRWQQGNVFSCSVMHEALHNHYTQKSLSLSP
light: DIVMTQSPATLSLSPGERATLSCTSSQSVYHANWLSWFQQKPGQPPKLLIYWASTLAYGVPSRFSGSGSGTDFTLTISSLQPEDAATYYCAGGYGGGRYAFGQGTKVEIKRTVAAPSVFIFPPSDEQLKSGTASVVCLLNNFYPREAKVQWKVDNALQSGNSQESVTEQDSKDSTYSLSSTLTLSKADYEKHKVYACEVTHQGLSSPVTKSFNRGEC
notes: also called N325L
As to B3, the “Binding to cynoFcgRs (SG1 = 100)” value in test [1] turned out to be 15; in test [2] it was 15; in test [3] it was 25; in test [4] it was 18; in test [5] it was 21.

B4: M103205H795-SG176 / M103202L889-SK1 (antibody, human IgG1, kappa, name in EU numbering)
heavy: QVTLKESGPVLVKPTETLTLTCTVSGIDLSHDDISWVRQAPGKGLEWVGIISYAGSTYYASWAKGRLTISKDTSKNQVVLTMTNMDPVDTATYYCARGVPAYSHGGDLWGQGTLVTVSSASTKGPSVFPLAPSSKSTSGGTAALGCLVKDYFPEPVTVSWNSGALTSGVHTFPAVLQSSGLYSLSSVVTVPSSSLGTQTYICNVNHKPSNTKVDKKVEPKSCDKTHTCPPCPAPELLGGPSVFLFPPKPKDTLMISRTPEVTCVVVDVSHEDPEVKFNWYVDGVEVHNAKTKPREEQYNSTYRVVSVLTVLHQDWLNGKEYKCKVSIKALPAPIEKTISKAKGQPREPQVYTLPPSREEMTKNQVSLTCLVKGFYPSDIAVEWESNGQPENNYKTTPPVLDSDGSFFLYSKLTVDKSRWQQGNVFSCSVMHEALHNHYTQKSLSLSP
light: DIVMTQSPATLSLSPGERATLSCTSSQSVYHANWLSWFQQKPGQPPKLLIYWASTLAYGVPSRFSGSGSGTDFTLTISSLQPEDAATYYCAGGYGGGRYAFGQGTKVEIKRTVAAPSVFIFPPSDEQLKSGTASVVCLLNNFYPREAKVQWKVDNALQSGNSQESVTEQDSKDSTYSLSSTLTLSKADYEKHKVYACEVTHQGLSSPVTKSFNRGEC
notes: also called N325I
In the case of B4, the “Binding to cynoFcgRs (SG1 = 100)” value was 14 in test [1]; 15 in test [2]; 19 in test [3]; 16 in test [4]; 20 in test [5].

B5: M103205H795-SG173 / M103202L889-SK1 (antibody, human IgG1, kappa, name in EU numbering)
heavy: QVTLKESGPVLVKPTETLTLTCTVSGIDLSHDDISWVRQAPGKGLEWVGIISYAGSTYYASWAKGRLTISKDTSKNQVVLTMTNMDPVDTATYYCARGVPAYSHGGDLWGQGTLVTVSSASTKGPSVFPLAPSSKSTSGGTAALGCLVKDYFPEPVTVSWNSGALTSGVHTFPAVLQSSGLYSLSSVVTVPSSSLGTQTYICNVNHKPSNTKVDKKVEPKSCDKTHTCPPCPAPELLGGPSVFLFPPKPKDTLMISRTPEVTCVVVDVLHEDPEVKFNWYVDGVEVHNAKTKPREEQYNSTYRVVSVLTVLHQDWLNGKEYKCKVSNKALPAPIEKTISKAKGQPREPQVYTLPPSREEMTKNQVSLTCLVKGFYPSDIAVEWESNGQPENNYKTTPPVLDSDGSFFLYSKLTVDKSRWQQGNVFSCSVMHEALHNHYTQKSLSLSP
light: DIVMTQSPATLSLSPGERATLSCTSSQSVYHANWLSWFQQKPGQPPKLLIYWASTLAYGVPSRFSGSGSGTDFTLTISSLQPEDAATYYCAGGYGGGRYAFGQGTKVEIKRTVAAPSVFIFPPSDEQLKSGTASVVCLLNNFYPREAKVQWKVDNALQSGNSQESVTEQDSKDSTYSLSSTLTLSKADYEKHKVYACEVTHQGLSSPVTKSFNRGEC
notes: also called S267L
As to B5, the “Binding to cynoFcgRs (SG1 = 100)” value in test [1] is 13; in test [2], 14; in test [3], 21; in test [4] it was 12; in test [5], 24.

B6: M103205H795-SG170 / M103202L889-SK1 (antibody, human IgG1, kappa, name in EU numbering)
heavy: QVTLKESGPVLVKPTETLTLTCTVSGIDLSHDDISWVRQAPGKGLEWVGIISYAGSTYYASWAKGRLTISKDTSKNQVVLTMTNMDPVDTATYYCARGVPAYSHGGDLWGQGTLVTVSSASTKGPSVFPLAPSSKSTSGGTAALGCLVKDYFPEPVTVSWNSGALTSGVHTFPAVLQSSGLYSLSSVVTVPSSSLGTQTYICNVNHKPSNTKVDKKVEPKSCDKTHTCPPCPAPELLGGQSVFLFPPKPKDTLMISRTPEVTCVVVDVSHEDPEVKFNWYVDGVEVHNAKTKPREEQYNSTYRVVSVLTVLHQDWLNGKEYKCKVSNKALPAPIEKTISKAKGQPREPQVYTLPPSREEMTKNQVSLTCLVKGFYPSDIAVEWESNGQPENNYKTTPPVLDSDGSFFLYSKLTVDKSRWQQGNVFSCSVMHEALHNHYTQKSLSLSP
light: DIVMTQSPATLSLSPGERATLSCTSSQSVYHANWLSWFQQKPGQPPKLLIYWASTLAYGVPSRFSGSGSGTDFTLTISSLQPEDAATYYCAGGYGGGRYAFGQGTKVEIKRTVAAPSVFIFPPSDEQLKSGTASVVCLLNNFYPREAKVQWKVDNALQSGNSQESVTEQDSKDSTYSLSSTLTLSKADYEKHKVYACEVTHQGLSSPVTKSFNRGEC
notes: also called P238Q
As for B6, the “Binding to cynoFcgRs (SG1 = 100)” value in test [1] stood at 16; in test [2], 15; in test [3], 21; in test [4], 18; in test [5], 12.

B7: M103205H795-SG174 / M103202L889-SK1 (antibody, human IgG1, kappa, name in EU numbering)
heavy: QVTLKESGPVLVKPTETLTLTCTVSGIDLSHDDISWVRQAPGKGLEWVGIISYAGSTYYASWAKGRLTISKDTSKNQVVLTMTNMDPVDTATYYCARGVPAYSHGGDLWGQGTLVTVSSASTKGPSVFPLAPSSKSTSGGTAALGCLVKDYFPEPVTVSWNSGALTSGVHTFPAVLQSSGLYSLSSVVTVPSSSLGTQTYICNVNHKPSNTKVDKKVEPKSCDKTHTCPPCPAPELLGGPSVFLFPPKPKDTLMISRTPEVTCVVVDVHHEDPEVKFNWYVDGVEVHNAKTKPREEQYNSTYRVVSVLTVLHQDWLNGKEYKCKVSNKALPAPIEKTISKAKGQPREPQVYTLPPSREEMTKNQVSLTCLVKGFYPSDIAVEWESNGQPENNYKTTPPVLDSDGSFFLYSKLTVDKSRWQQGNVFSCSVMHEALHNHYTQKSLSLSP
light: DIVMTQSPATLSLSPGERATLSCTSSQSVYHANWLSWFQQKPGQPPKLLIYWASTLAYGVPSRFSGSGSGTDFTLTISSLQPEDAATYYCAGGYGGGRYAFGQGTKVEIKRTVAAPSVFIFPPSDEQLKSGTASVVCLLNNFYPREAKVQWKVDNALQSGNSQESVTEQDSKDSTYSLSSTLTLSKADYEKHKVYACEVTHQGLSSPVTKSFNRGEC
notes: also called S267H
B7: the “Binding to cynoFcgRs (SG1 = 100)” value in test [1] is 13; in test [2], 16; in test [3] it was 20; in test [4], 11; in test [5], 15.

B8: M103205H795-SG172 / M103202L889-SK1 (antibody, human IgG1, kappa, name in EU numbering)
heavy: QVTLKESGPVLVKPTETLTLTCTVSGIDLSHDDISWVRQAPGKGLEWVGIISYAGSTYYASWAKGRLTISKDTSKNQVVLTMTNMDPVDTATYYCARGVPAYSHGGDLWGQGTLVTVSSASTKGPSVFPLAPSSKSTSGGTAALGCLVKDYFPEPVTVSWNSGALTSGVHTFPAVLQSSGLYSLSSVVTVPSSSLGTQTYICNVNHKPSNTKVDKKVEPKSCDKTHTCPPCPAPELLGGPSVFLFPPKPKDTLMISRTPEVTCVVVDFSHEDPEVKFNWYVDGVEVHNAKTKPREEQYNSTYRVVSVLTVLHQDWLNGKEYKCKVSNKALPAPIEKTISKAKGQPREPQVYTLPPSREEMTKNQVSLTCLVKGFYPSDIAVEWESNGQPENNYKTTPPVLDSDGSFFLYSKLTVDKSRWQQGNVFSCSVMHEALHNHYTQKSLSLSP
light: DIVMTQSPATLSLSPGERATLSCTSSQSVYHANWLSWFQQKPGQPPKLLIYWASTLAYGVPSRFSGSGSGTDFTLTISSLQPEDAATYYCAGGYGGGRYAFGQGTKVEIKRTVAAPSVFIFPPSDEQLKSGTASVVCLLNNFYPREAKVQWKVDNALQSGNSQESVTEQDSKDSTYSLSSTLTLSKADYEKHKVYACEVTHQGLSSPVTKSFNRGEC
notes: also called V266F
With B8, the “Binding to cynoFcgRs (SG1 = 100)” value in test [1] is 14; in test [2], 17; in test [3], 27; in test [4], 16; in test [5], 31.

B9: M103205H795-SG169 / M103202L889-SK1 (antibody, human IgG1, kappa, name in EU numbering)
heavy: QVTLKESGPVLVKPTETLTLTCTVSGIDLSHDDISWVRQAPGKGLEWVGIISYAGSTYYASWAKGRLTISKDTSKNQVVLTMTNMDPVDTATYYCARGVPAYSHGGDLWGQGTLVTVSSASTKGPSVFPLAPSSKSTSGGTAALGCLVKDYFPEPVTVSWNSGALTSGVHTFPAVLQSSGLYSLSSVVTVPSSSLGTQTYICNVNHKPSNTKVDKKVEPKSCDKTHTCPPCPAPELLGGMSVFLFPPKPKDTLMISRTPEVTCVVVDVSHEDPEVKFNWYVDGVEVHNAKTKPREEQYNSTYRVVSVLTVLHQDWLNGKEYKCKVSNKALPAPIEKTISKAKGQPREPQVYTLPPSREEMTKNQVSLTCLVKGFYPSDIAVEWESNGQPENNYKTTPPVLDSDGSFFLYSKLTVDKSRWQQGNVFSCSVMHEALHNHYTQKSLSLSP
light: DIVMTQSPATLSLSPGERATLSCTSSQSVYHANWLSWFQQKPGQPPKLLIYWASTLAYGVPSRFSGSGSGTDFTLTISSLQPEDAATYYCAGGYGGGRYAFGQGTKVEIKRTVAAPSVFIFPPSDEQLKSGTASVVCLLNNFYPREAKVQWKVDNALQSGNSQESVTEQDSKDSTYSLSSTLTLSKADYEKHKVYACEVTHQGLSSPVTKSFNRGEC
notes: also called P238M
For B9, the “Binding to cynoFcgRs (SG1 = 100)” value in test [1] turned out to be 17; in test [2], 16; in test [3], 32; in test [4], 22; in test [5] it was 22.

B10: M103205H795-SG179 / M103202L889-SK1 (antibody, human IgG1, kappa, name in EU numbering)
heavy: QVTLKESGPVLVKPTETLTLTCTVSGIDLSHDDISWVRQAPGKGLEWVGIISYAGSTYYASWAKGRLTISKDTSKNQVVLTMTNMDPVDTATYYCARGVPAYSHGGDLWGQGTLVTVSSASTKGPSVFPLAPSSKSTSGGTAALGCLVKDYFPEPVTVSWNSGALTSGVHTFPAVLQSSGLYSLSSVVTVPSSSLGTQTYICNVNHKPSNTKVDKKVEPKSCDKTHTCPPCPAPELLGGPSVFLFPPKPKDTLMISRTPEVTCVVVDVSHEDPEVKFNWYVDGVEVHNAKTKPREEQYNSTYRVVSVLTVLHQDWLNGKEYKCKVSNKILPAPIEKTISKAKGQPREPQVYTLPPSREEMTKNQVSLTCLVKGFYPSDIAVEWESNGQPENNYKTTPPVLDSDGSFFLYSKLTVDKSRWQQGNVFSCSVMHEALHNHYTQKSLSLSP
light: DIVMTQSPATLSLSPGERATLSCTSSQSVYHANWLSWFQQKPGQPPKLLIYWASTLAYGVPSRFSGSGSGTDFTLTISSLQPEDAATYYCAGGYGGGRYAFGQGTKVEIKRTVAAPSVFIFPPSDEQLKSGTASVVCLLNNFYPREAKVQWKVDNALQSGNSQESVTEQDSKDSTYSLSSTLTLSKADYEKHKVYACEVTHQGLSSPVTKSFNRGEC
notes: also called A327I
For the molecule B10, the “Binding to cynoFcgRs (SG1 = 100)” value in test [1] stood at 19; in test [2] it was 17; in test [3], 28; in test [4] it was 19; in test [5], 48.
